Measurements published in publication PMC8544716.
pKd: −log10 of the molar value.

Columns and labels:
Details in all cases: EMSA: 0.2 uM 5'-labelled RNA (90 C 2 min, slow cool to 37 C), yeast tRNA 0.1 ug/reaction, Hfq hexamer 0-500 nM, structure buffer (Ambion), 10 min at 37 C, then …
Hfq (Escherichia coli) [1] = molecular target: Hfq (Escherichia coli) (UniProt P0A6X3); test: footprinting (lead acetate)
Hfq (Escherichia coli) [2] = molecular target: Hfq (Escherichia coli) (UniProt P0A6X3); test: EMSA
Hfq (Escherichia coli) [3] = test: EMSA

Sequence of Hfq (Escherichia coli) (UniProt P0A6X3) (P0A6X3 whole entry): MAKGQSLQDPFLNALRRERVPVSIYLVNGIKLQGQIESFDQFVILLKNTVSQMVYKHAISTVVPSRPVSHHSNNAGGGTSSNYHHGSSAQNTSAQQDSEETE

Row | Substance | binding (Hfq (Escherichia coli) [1]) | pKd (Hfq (Escherichia coli) [2]) | pKd (Hfq (Escherichia coli) [3])
1 | GGAUACGCACAAUAAGGCUAUUGUACGUAUGCAAAUUAAUAAUAAAGGAGAGUAGCAAUGUCAUUCGAAUUACCUGCACUACCAUAUGCUAAAGAUGCUCUGGCACCGCACAUUUCUGCGGAAACCAUCGAGGAUCCCUAGC [sodB130] | binds | 6.81 | –
2 | GGAUACGCACAAUAAGGCUAUUGUACGUAUGCAGGCCGGCAAUAAAGGAGAGUAGCAAUGUCAUUCGAAUUACCUGCACUACCAUAUGCUAAAGAUGCUCUGGCACCGCACAUUUCUGCGGAAACCAUCGAGGAUCCCUAGC [sodB130MH] | – | 6.50 | –
3 | sodB130 | – | – | 6.81
